Literature values, collected in PMC2884063.

Biological target: Importin β (Homo sapiens) (UniProt Q14974)
Sequence of UniProt Q14974 (Q14974 whole entry): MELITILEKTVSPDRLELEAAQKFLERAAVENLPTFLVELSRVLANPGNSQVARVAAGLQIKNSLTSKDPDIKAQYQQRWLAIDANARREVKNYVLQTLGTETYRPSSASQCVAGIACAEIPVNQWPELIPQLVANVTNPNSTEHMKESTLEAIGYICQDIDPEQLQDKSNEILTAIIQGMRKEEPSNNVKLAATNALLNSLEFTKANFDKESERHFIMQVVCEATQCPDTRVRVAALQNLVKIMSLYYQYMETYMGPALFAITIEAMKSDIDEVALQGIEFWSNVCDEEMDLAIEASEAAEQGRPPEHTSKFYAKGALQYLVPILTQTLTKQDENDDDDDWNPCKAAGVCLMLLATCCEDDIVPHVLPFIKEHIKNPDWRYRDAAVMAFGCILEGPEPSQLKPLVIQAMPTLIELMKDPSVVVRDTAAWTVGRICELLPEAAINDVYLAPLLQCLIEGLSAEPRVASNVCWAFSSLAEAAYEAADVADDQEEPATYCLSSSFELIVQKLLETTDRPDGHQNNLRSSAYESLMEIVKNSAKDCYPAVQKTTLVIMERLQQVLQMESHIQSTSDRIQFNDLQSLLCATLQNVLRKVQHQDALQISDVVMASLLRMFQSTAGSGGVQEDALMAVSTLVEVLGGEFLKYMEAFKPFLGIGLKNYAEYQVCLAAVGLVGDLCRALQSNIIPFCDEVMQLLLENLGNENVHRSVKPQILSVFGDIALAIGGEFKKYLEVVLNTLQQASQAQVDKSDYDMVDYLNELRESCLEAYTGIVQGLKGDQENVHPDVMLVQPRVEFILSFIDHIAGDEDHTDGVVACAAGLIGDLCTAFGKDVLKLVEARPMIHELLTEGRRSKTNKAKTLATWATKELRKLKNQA

Kd: 2 nM
Substance: Snp1 (snurportin 1) IBB (from UniProt O95149)
